Laboratory results from patent publication US20180057604A1 (Genentech, published 2018).
Like-named read-outs stand apart in the source and are kept apart here.

Tests used:
[1] = target: T1, human TfR extracellular domain with N-terminal His tag (human, UniProt P02786 89-760); assay: SPR, IgG
T1 construct: Biotinylated in some assays; also called huTfR; HuTfR
Method: (§1) Antibody affinities were measured using surface plasmon resonance (“SPR”) (Biacore™, GE Healthcare). Anti-His antibody (Qiagen) was coupled onto four different flow cells of a BIACORE™ CM5 sensor chip (Biacore, Inc., Piscataway, N.J.) at between 6000 and 8000 RU. Immobilization was achieved by random coupling through amino groups using a protocol provided by the manufacturer. 10×HBS-P (Biacore, Inc., Piscataway, N.J.) was diluted in water and served as the dilution and running buffer. Purified human or cyno TfR was captured, followed by a 3-fold dilution series of IgG or Fab that was injected at a flow rate of 30 ml/min using the single cycle kinetics method. Affinity constants were determined using a simple 1:1 Langmuir binding model or using a steady state model when kₒₙ or koff was beyond the detection limit. The equilibrium dissociation constant (KD) was calculated as the ratio of association rate constant (kₒₙ) and dissociation rate constant (koff).

[2] = target: T2, cyno TfR extracellular domain (analogous construct to human TfR ecd) (cynomolgus monkey, UniProt Q5RDH6 87-760 (Pongo abelii entry)); assay: SPR, IgG
T2 construct: also called cynoTfR ecd
T2 chain: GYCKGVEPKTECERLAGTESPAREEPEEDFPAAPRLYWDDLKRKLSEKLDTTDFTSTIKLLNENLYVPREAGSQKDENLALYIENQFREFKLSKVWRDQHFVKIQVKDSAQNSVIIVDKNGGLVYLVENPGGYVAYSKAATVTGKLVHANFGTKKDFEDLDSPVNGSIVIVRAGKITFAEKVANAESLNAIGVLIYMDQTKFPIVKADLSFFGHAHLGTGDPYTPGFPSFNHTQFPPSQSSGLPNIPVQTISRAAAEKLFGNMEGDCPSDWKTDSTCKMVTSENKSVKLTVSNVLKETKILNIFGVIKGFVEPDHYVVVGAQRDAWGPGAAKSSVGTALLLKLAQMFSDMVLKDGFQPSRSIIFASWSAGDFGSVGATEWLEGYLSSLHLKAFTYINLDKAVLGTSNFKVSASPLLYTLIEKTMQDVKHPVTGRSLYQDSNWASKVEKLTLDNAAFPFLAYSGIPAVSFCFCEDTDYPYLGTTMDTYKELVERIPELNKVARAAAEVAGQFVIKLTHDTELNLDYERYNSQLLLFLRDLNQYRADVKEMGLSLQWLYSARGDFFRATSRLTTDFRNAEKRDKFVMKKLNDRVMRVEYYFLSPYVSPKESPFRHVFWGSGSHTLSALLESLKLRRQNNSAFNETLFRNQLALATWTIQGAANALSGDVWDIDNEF
Method: as §1

[3] = target: T1, human TfR extracellular domain with …; assay: ELISA, IgG
Method: (§2) Affinity variants were generated by making individual alanine substitutions in CDR-L3 or CDR-H3 using standard techniques. These variants were screened as IgG by ELISA and SPR to identify positions important for binding to human and cyno TfR; the monovalent affinity of selected variants as Fab was also determined. […] Plates were washed with PBS/0.05% Tween 20 and blocked using Superblock blocking buffer in PBS (Thermo Scientific, Hudson, N.H.). Supernatants containing expressed IgG were diluted serially 1:5 and added to the plate for 1 h. […] Plates were washed with PBS/0.05% Tween 20 and 1:1000 diluted HRP-Goat-anti kappa (Southern Biotech) was added the plate and incubated for 1 h at room temperature. Plates were washed with PBS/0.05% Tween 20 and detected using TMB substrate (BioFX Laboratories, Owings Mills).

[4] = target: T2, cyno TfR extracellular domain …; assay: ELISA, IgG
Method: as §2

[5] = target: T1, human TfR extracellular domain with …; assay: SPR, IgG; remark: listed apart in the source
[6] = target: T2, cyno TfR extracellular domain …; assay: SPR, IgG
murine BACE1 ECD [7] = target: T3, murine BACE1 ECD; assay: Octet, pH 7.5;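 also: antibodies captured on anti-human capture sensor tips, dissociation monitored in PBS with BSA, Kd obtained from kinetic fit to a one-to-one binding model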
T3 construct: analyte of the Octet assay (200 nM) and enzyme of the first short substrate assay
Method: (§3) Anti-BACE1 antibodies were loaded onto anti-human capture (AHC) sensors (tips) followed by 60 seconds baseline in assay buffer. […] Tips were transferred to assay buffer for 5 minutes, 30 minutes, or 120 minutes depending on the off-rate, for off-rate measurement. Assay buffer was either PBS+0.1% BSA, pH 7.5; or PBS+0.1% BSA, pH 5.0. Kinetics were analyzed using a 1:1 binding model.

human BACE1 ECD [8] = target: T4, human BACE1 ECD; assay: Octet, pH 7.5;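 also: antibodies captured on anti-human capture sensor tips, dissociation monitored in PBS with BSA, Kd obtained from kinetic fit to a one-to-one binding model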
T4 construct: analyte of the Octet assay (200 nM) and enzyme of the first short substrate assay; also called human BACE1 extracellular domain
Method: as §3

[9] = target: BACE1 in primary mouse cortical neurons (mouse, UniProt P56818 46-501); assay: cell-based or functional assay
[10] = target: T5, human BACE1 (R&D Systems) (human, UniProt P56817); assay: SPR (Biacore)
T5 construct: recombinant, commercial (R&D Systems)
Method: Binding affinities of certain anti-BACE1 IgGs were measured by surface plasmon resonance (SRP) using a BIAcore™-T100 instrument. […] Association rates (kon) and dissociation rates (koff) were calculated using a simple one-to-one Langmuir binding model (BIAcore Evaluation Software version 3.2). The equilibrium dissociation constant (KD) was calculated as the ratio koff/kon.

murine BACE1 ECD [11] = target: T3, murine BACE1 ECD; assay: Octet, pH 5.0;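 also: antibodies captured on anti-human capture sensor tips, dissociation monitored in PBS with BSA buffer, kinetics fitted with a one-to-one binding model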
Method: as §3

human BACE1 ECD [12] = target: T4, human BACE1 ECD; assay: Octet, pH 5.0;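 also: antibodies captured on anti-human capture sensor tips, dissociation monitored in PBS with BSA buffer, kinetics fitted with a one-to-one binding model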
Method: as §3

T1 sequence (P02786 89-760 G142S): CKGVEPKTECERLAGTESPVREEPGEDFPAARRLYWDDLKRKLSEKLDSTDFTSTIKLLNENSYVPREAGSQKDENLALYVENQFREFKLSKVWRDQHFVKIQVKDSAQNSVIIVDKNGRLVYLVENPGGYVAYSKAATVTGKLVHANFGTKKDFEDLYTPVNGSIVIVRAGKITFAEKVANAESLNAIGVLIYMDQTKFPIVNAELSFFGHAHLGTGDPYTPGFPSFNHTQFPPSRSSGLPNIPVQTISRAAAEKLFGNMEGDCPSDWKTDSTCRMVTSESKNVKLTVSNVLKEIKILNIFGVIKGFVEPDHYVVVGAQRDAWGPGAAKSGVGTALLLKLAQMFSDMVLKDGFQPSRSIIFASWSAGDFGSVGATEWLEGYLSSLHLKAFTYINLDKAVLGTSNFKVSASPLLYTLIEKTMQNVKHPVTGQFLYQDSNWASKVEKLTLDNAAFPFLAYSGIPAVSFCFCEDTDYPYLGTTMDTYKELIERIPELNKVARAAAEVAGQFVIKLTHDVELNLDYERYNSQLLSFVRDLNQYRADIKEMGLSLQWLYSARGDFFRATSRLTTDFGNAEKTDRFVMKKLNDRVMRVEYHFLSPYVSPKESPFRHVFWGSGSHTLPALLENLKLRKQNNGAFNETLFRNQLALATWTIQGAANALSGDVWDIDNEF
BACE1 in primary mouse cortical neurons, sequence (P56818 46-501): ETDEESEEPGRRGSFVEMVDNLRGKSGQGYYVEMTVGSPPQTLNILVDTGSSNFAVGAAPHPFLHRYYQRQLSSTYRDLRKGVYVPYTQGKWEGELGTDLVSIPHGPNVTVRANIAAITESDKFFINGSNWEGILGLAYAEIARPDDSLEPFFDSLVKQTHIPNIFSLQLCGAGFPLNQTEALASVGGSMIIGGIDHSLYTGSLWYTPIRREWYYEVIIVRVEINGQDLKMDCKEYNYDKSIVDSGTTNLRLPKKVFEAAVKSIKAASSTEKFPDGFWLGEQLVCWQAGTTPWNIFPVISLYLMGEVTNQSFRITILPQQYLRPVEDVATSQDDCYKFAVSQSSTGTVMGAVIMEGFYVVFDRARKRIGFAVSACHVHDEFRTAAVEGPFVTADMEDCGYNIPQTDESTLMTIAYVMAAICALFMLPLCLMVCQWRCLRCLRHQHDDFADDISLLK
T4 sequence (single chain, as listed by the source limits assumed): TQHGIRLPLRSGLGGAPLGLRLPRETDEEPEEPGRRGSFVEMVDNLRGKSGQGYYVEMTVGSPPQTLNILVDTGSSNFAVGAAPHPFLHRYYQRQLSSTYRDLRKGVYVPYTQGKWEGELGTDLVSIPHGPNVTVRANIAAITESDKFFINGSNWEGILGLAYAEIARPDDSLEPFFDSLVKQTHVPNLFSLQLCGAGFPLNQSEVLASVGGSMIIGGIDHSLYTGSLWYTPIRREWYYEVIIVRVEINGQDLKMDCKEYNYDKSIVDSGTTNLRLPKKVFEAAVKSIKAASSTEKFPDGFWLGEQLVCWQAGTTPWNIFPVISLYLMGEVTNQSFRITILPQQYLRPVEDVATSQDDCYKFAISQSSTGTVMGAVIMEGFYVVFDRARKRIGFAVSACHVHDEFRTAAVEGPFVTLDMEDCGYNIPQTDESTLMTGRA
T3 sequence (single chain, as listed by the source limits assumed): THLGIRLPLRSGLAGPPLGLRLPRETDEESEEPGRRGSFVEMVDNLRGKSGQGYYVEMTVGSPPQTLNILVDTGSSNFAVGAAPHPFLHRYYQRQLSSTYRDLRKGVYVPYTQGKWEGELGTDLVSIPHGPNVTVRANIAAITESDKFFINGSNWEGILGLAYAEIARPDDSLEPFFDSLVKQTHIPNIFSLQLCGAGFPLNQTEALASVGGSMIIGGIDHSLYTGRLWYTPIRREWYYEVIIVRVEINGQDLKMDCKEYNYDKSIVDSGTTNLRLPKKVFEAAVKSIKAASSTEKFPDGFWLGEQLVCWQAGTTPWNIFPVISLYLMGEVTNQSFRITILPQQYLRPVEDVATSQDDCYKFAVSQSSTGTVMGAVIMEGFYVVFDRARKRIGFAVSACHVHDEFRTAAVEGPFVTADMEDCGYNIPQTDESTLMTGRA
T5 sequence (P56817 22-457 limits assumed): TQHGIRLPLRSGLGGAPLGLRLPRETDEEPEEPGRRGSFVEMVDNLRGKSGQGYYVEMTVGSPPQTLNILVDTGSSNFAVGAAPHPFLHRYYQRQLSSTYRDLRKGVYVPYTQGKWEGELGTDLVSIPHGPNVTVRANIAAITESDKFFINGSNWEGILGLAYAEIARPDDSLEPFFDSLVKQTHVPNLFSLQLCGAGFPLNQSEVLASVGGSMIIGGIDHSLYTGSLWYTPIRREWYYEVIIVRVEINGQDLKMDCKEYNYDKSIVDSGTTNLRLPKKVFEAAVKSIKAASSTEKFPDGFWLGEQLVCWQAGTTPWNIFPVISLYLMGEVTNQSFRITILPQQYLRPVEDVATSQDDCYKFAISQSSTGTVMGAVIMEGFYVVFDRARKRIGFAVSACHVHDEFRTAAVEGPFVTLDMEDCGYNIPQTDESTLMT

| Kd [1] [nM] | Kd [2] [nM] | EC50 [3] [µg/mL] | EC50 [4] [µg/mL] | also measured | Binder |
| --- | --- | --- | --- | --- | --- |
| 2.03 | 43.4 |  |  |  | 1B12 (antibody, V domains shown, Mouse hybridoma antibody; also called clone 1B12) VH: EVKLVESGGGLVQPGGFLKLSCATSGFTFSDYYMYWVRQTPEKRLEWVASISNGGDNTYYPDTVKGRFTISRDNAKNTLYLQMSRLKSEDTAMYYCARQGALYDGYYRGAMDYWGQGTSVTVSS VL: QIVLTQSPAIMSASLGGRVTMTCTTSSSVPSSYFHWYQQKPGSSPKLWIYSTSNLASGVPARFSGSGSGTSYSLTISSMEAEDAATYYCHQYHRSPFTFGSGTKLEIK |
|  |  | 0.013 | 0.024 |  | H90A (antibody, V domains shown, also called 15G11.v5 H90A (CDR-L3) IgG) VH: EVQLVQSGAEVKKPGASVKVSCKASGYTFTSYWMHWVRQAPGQRLEWIGEINPTNGRTNYIEKFKSRATLTVDKSASTAYMELSSLRSEDTAVYYCARGTRAYHYWGQGTMVTVSS VL: DIQMTQSPSSLSASVGDRVTITCRASDNLYSNLAWYQQKPGKSPKLLVYDATNLADGVPSRFSGSGSGTDYTLTISSLQPEDFATYYCQAFWGTPLTFGQGTKVEIK |
|  |  | 0.0099 | 0.018 |  | L96A (antibody, V domains shown, also called 15G11.v5 L96A (CDR-L3) IgG) VH: EVQLVQSGAEVKKPGASVKVSCKASGYTFTSYWMHWVRQAPGQRLEWIGEINPTNGRTNYIEKFKSRATLTVDKSASTAYMELSSLRSEDTAVYYCARGTRAYHYWGQGTMVTVSS VL: DIQMTQSPSSLSASVGDRVTITCRASDNLYSNLAWYQQKPGKSPKLLVYDATNLADGVPSRFSGSGSGTDYTLTISSLQPEDFATYYCQHFWGTPATFGQGTKVEIK |
|  |  | 0.0168 | 0.0293 |  | T94A (antibody, V domains shown, also called 15G11.v5 T94A (CDR-L3) IgG) VH: EVQLVQSGAEVKKPGASVKVSCKASGYTFTSYWMHWVRQAPGQRLEWIGEINPTNGRTNYIEKFKSRATLTVDKSASTAYMELSSLRSEDTAVYYCARGTRAYHYWGQGTMVTVSS VL: DIQMTQSPSSLSASVGDRVTITCRASDNLYSNLAWYQQKPGKSPKLLVYDATNLADGVPSRFSGSGSGTDYTLTISSLQPEDFATYYCQHFWGAPLTFGQGTKVEIK |
|  |  | 0.0134 | 0.0157 |  | T97A (antibody, V domains shown, also called 15G11.v5 T97A (CDR-L3) IgG) VH: EVQLVQSGAEVKKPGASVKVSCKASGYTFTSYWMHWVRQAPGQRLEWIGEINPTNGRTNYIEKFKSRATLTVDKSASTAYMELSSLRSEDTAVYYCARGTRAYHYWGQGTMVTVSS VL: DIQMTQSPSSLSASVGDRVTITCRASDNLYSNLAWYQQKPGKSPKLLVYDATNLADGVPSRFSGSGSGTDYTLTISSLQPEDFATYYCQHFWGTPLAFGQGTKVEIK |
|  |  | 0.0142 | 0.0216 |  | H101A (antibody, V domains shown, also called 15G11.v5 H101A (CDR-H3) IgG; copies: 2 + 2) VH: EVQLVQSGAEVKKPGASVKVSCKASGYTFTSYWMHWVRQAPGQRLEWIGEINPTNGRTNYIEKFKSRATLTVDKSASTAYMELSSLRSEDTAVYYCARGTRAYAYWGQGTMVTVSS VL: DIQMTQSPSSLSASVGDRVTITCRASDNLYSNLAWYQQKPGKSPKLLVYDATNLADGVPSRFSGSGSGTDYTLTISSLQPEDFATYYCQHFWGTPLTFGQGTKVEIK |
| 9.5 | 8.47 |  |  |  | 13D4 (antibody, V domains shown, Mouse hybridoma antibody; also called clone 13D4) VH: QVQLQQSGAELMKPGASVKISCKAAGYTFSNYWIEWVKQRPGHGLEWIGEILPGSGSTKYNEKFKGKATFTADTSSNTAYMQLSSLTSEDSAVYYCARRGGYGYDGEFAYWGQGTLVTVSA VL: DIQMTQTTSSLSASLGDRVTINCRAGQDITNYLNWFQQKPDGTVKLLIYYTSRLHSGVPSRFSGSGSGTDYSLTITNLEQEDIATYFCQQANTLPYTFGGGTKLEIK |
| 45.7 | 262 |  |  |  | 7G7 (antibody, V domains shown, Mouse hybridoma antibody; also called clone 7G7) VH: QVQLQQPGSELVRPGASVKLSCKASGYTFTSYWMHWVKQRHGQGLEWIGNIYPGSGSTKYDERFKSKGTLTVDTSSSTAYMHLSSLTSEDSAVYYCTRGGYDSRAWFAYWGQGTLVTVSA VL: DIVLTQSPASLAVSLGQRATISCRARQSVSTSSYSFMHWYRQKAGQPPKLLIKYASIQESGVPARFSGSGSGTDFTLNILPVEEEDTATYYCQHTWEIPFTFGSGTKLEIK |
| 0.992 | 2.6 |  |  | Kd [5]: 0.992 nM; Kd [6]: 2.6 nM | 15G11 (antibody, V domains shown, Mouse hybridoma antibody; also called clone 15G11) VH: QVQLQQPGAELVKPGASVKLSCKASGYTFTSYWMHWVKQRPGQGLEWIGEINPTNGRTNYIEKFKSKATLTVDKSSSTAYMQLSSLTSEDSAVYYCARGTRAYHYWGQGTSVTVSS VL: DIQMTQSPASLSVSVGETVTITCRASDNLYSNLAWYQQKQGKSPQLLVYDATNLADGVPSRFSGSGSGTQYSLKINSLQSEDFGTYYCQHFWGTPLTFGAGTKLELK |
| 3.4 | 22.4 |  |  |  | 16G4 (antibody, V domains shown, Mouse hybridoma antibody; also called clone 16G4) VH: QVQLQQPGAELVKPGASVKLSCKASGYTFTSYWMHWVKQRPGQGLEWIGEINPSNGRTNYNETFKSKATLTVDKSSSTAYMQLSSLTSEDSAVYYCARGTRAYHYWGQGTSVTVSS VL: DIQMTQSPASLSVSVGETVTITCRASDNIYSNLAWYQQKQGKSPQLLVYAVTNLADGVPSRFSGSGSGTQYSLKINSLQSEDFGSYYCQHFWGTPLTFGAGTKLELK |
|  |  |  |  | Kd (murine BACE1 ECD [7]): < 0.41 nM; Kd (human BACE1 ECD [8]): < 0.41 nM; IC50, Abeta x-40 in mouse cortical neurons [9]: 10.4 nM; maximal % inhibition of Abeta x-40 [9]: 70%; Kd [10]: 5.82 nM; Kd (murine BACE1 ECD [11]): < 0.46 nM; Kd (human BACE1 ECD [12]): < 0.28 nM | 6299 (antibody, V domains shown, anti-BACE1 IgG) VH: QVQLVQSGAEVKKPGSSVKVSCKASGGTLSGYAISWVRQAPGQGLEWMGNIIPGFGTANYAQKSQGRVTITADESTSTAYMELSSLRSEDTAVYYCARSGGTRYGMLDVWGQGTMVTVSS VL: EIVMTQSPATLSVSPGERATLSCRASQSVGSNLAWYQQKPGQAPRLLIYGASTRATGIPARFSGSGSGTEFTLTISSLQSEDFAVYYCQQSYLWPPRTFGGGTKVEIK |
| 0.206 | 0.627 |  |  | Kd [5]: 0.206 nM; Kd [6]: 0.627 nM | 7A4 (antibody, V domains shown, also called clone 7A4) VH: QVQLQQSGPELVRPGVSVKISCKGSGYTFTDYAMHWVKQSHAKSLEWIGGISTYFGRTNYNQKFKGRATMTVDKSSSTAYMELARLTSEDSALYYCARGLSGNYVMDYWGQGTSVTVSS VL: DIVLTQSPASLAVSLGQRATISCRASESVDDYGNSFMHWYQQKPGQPPKLLIYRASNLESGIPARFSGSGSRTDFTLTINPVEADDVATYYCQQSNEAPPTFGGGTKLEIR |
| 2.08 | 89.9 |  |  |  | 10D11 (antibody, V domains shown, Mouse hybridoma antibody; also called clone 10D11) VH: QVQLQQSGPELVRPGVAVKISCKGSGYKFIDYGMHWVKQSHTKSLQWIGVISPYSGKTNYSQKFKGKATMTVDKSSSTAYMELARLTSEDSAIYYCARGLSGNFVMDFWGQGTSVTVSS VL: DIVLTQSPASLAVSLGQRATISCRASESVDSYGPSFMHWYQQKPGQPPKLLIYRASNLESGIPARFSGSGSRTDFTLTINPVEADDVATYYCQHSNEDPPTFGGGTRLEIK |
| 0.179 | 0.904 |  |  |  | 8A2 (antibody, V domains shown, Mouse hybridoma antibody; also called clone 8A2) VH: QVQLQQSGPELVRPGVSVKISCKGSGYTFTDYGMHWVKQSHAKSLEWIGVISPYSGRTNYNQNFKGKATMTVDKSSSTAYLELARLTSEDSAIYYCARGLSGNYVVDYWGQGTSVTVSS VL: DIVLTQSPASLAVSLGQRATISCRASESVDSYGNSFMHWYQQKPGQPPKLLIYRASNLESGIPARFSGSGSRTDFTLTINPVEADDVATYYCQQSNEGPPTFGGGTKLEIK |
